In article PMC4159212:

Substrate: COC1=C(OC)C(=O)C(CC=C(C)C)=C(C)C1=O
Assay: PRODH steady-state kinetics
Type: biochemical, Rhodobacter capsulatus
Details: 200 mM proline fixed, 23 °C, 20 mM Tris pH 8.0, 10% glycerol

B1: RcPutA (Rhodobacter capsulatus SB 1003) (protein)
chain: MTDLSALGPKAKFAPEAEVLQALVAQAALPQPQLDRIAARGADLVARIRAEAKPSLMEHFLAQYGLSTREGVALMCLAEAMLRVPDTATIDALIEDKIAPSDWGKHLGTAASSLVNASTWALMLTGKVLDDGAGGIAGTLRGAMRRLGEPVIRAAVGQAMREMGRQFVLGETIEKALERAEKREAEGYTFSYDMLGEAALTAADAERYRLAYAQAITAIGKAATRGSIAANPGISIKLSALHPRYEVAQEARVMAELVPVVRDLARAAARAGIALHIDAEEQDRLALSLRVMAAVIADPETAGWEGFGAVVQAYGKRAGAAIDALAAMARAAGRRINIRLVKGAYWDAEMKRAQVEGHPGFPLFTSKTGTDVAYICLAAKLFGLNDCIYPQFATHNAHTVAAVLEMAAGRPFEFQRLHGMGARLHDIVLRETGGRCRIYAPVGAHRDLLAYLVRRLLENGANSSFVNQIVNESVPPAEVAACPFAALPTARAPRGLLAPADLFGAGRVNAQGFDLSDPEVLARIEAARDVTLPDAAPIVAGPVSGTLRPVRNPATGAVVAQVTEADAATVALALDAAQVWSAPAATRAAVLCRAADLYEENFGPIFAALAQEAGKTLGDAVSELREAVDFLRYYAAEGAADTRPPRGAVVAISPWNFPLAIFTGQVAAALMAGNAVLAKPAEQTPIIAALAVRLLHQAGVPETALQLLPGDGPTVGAALTRDPRVAGVVFTGSTETAQIIARAMAAHLAPGTPLIAETGGLNAMVVDSTALPEQAVRDVVASAFRSAGQRCSALRCLYVQDDIAPHLIGMLKGAMEELVSGDPARLSTDVGPVIDAEAKAGIETYLAANKARILHRSTAPEGGHFVAPALLQVGGIADLEREIFGPVLHLATFAAEDLPAVIAAINARGYGLTFGLHSRIDARVETVAETIRAGNIYVNRNQIGAVVGSQPFGGEGLSGTGPKAGGPLYLNRFYAPEPVVAVGGWTEAATPILPEARETQLDEIFLPGPTGELNRLTRHQRGPILCLGPGAEAASAQAAAVVALGGQAVQASGAVSPKALETLTPLAGVLWWGAAEMGRAYAQALAVRPGPLVPLITAKPDLAHVAHERHLCVDTTAAGGNAALLAG
In the case of B1, the Km is reported as 94 ± 19 µM and the kcat is reported as 2.0 ± 0.1 s⁻¹.
